Assay results published in patent publication EP1892250A2.

Experiments:
[1] = target: α6β1 integrin on human cells (1064SK fibroblasts, endothelial cells) (human) (UniProt P23229); assay: cell-based or functional assay
[2] = target: αvβ3 integrin on human cells (human) (UniProt P06756); assay: cell-based or functional assay
αvβ3 integrin on human cells (human), sequence (P06756 31-1048, chain 1 of 2): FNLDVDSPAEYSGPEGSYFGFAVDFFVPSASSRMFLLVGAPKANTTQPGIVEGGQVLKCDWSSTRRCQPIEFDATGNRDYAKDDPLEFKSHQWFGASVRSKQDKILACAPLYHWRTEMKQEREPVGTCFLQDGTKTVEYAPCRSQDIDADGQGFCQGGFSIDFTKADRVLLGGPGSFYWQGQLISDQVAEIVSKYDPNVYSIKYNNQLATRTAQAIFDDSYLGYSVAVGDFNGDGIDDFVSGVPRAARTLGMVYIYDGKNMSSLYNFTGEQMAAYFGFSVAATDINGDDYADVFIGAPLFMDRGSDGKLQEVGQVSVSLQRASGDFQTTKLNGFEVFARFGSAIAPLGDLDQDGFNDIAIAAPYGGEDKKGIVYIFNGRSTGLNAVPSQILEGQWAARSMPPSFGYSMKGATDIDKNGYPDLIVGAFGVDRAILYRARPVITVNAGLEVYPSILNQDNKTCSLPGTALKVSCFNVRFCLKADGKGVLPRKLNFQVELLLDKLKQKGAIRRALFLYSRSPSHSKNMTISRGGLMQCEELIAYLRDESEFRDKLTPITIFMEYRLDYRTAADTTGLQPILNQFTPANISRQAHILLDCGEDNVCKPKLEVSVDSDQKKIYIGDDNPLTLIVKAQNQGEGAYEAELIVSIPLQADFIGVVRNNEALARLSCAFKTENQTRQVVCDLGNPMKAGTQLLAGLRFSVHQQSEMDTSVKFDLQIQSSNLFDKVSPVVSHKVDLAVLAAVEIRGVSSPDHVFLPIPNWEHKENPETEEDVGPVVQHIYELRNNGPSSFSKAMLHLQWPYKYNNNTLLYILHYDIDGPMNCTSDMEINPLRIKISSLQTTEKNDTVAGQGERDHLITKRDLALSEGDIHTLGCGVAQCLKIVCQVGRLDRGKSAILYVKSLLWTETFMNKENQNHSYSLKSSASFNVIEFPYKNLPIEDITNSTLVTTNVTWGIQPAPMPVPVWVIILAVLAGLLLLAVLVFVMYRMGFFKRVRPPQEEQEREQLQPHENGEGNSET
αvβ3 integrin on human cells (human), sequence (P05106 27-788, chain 2 of 2, further chain): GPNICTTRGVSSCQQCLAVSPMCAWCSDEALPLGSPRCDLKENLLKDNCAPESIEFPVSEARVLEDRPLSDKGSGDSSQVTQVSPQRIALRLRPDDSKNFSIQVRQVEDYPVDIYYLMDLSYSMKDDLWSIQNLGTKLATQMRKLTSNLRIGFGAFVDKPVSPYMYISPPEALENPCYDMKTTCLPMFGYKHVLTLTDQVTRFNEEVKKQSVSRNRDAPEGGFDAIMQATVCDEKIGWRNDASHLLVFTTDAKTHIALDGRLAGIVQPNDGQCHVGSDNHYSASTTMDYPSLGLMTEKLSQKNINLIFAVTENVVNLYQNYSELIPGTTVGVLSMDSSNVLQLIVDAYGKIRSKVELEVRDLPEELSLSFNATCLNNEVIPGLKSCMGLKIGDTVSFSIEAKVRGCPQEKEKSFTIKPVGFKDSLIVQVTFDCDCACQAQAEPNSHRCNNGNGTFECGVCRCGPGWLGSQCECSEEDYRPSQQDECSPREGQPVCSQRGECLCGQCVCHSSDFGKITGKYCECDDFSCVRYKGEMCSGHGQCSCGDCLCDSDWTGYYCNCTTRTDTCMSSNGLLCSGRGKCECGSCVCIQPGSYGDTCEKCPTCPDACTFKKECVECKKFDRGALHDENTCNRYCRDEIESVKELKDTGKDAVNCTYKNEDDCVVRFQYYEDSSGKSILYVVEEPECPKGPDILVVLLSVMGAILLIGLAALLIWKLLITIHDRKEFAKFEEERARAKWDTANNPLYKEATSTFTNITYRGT

α6β1 integrin on human cells (1064SK fibroblasts, endothelial cells) (human), sequence (P23229 24-1130, chain 1 of 2): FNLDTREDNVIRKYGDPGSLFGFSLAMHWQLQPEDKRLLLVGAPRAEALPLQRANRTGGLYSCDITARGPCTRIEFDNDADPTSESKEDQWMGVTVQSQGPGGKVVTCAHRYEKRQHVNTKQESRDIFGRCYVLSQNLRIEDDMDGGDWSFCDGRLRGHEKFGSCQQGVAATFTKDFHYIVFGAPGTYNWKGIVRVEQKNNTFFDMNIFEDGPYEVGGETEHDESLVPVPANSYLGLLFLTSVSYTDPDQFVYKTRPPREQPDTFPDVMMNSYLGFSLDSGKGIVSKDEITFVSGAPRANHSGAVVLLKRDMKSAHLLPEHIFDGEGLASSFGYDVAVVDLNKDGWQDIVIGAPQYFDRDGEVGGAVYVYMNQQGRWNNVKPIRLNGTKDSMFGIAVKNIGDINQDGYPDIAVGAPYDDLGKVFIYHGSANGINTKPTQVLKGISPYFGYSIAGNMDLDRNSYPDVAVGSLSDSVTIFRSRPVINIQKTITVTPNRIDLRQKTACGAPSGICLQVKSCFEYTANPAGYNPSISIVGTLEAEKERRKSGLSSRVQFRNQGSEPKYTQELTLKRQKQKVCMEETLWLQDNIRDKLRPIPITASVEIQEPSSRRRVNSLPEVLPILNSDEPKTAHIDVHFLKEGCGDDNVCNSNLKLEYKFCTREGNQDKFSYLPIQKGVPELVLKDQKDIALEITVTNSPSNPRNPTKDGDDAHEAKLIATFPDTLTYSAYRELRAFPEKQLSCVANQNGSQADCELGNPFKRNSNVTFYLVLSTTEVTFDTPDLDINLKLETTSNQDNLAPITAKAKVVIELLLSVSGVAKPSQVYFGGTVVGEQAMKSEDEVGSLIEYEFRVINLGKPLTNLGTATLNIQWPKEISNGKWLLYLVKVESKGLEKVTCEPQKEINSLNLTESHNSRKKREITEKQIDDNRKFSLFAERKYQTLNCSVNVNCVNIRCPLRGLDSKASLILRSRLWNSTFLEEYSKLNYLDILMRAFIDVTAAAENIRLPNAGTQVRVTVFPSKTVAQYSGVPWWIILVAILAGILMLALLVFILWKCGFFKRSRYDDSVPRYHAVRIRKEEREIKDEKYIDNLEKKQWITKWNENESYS
α6β1 integrin on human cells (1064SK fibroblasts, endothelial cells) (human), sequence (P05556 21-798, chain 2 of 2, further chain): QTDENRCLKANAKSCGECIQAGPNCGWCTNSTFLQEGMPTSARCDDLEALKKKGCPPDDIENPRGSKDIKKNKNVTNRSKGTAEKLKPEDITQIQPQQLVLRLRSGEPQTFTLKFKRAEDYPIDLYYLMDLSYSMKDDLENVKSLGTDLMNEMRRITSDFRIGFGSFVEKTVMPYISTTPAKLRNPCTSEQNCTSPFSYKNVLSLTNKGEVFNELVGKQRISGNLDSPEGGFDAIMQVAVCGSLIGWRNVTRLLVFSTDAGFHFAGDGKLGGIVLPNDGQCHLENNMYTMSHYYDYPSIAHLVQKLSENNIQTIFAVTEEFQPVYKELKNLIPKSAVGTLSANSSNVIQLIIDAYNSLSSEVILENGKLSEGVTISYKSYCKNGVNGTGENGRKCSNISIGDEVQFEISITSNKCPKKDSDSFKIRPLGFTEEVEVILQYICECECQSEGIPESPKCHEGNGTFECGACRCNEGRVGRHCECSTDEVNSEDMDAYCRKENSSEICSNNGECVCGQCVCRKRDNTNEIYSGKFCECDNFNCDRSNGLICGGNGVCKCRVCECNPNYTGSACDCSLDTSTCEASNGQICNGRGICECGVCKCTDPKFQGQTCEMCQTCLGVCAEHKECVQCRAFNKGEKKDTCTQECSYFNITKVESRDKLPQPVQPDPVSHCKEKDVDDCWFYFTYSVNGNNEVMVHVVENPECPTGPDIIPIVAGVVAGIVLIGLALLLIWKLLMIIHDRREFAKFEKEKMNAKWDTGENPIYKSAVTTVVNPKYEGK

| 1064SK fibroblast adhesion to laminin (5 µg/ml), with anti-α6 antibody 20 µg/ml (A620) [1] [A620] | 1064SK fibroblast adhesion to laminin (5 µg/ml), without anti-α6 antibody (A620) [1] [A620] | inhibition of 1064SK fibroblast adhesion to laminin by anti-α6 antibody [1] [%] | 1064SK fibroblast adhesion to Cyr61 (2 µg/ml), with anti-α6 antibody 20 µg/ml (A620) [1] [A620] | 1064SK fibroblast adhesion to Cyr61 (2 µg/ml), with anti-β1 antibody JB1A 50 µg/ml (A620) [1] [A620] | 1064SK fibroblast adhesion to Cyr61 (2 µg/ml), without anti-α6 antibody (A620) [1] [A620] | 1064SK fibroblast adhesion to Cyr61 (2 µg/ml), without anti-β1 antibody JB1A (A620) [1] [A620] | 1064SK fibroblast adhesion to Cyr61 (A620), antibody: None (control) [1] [A620] | 1064SK fibroblast adhesion to Cyr61 (A620), antibody: anti-α1 (40 µg/ml) [1] [A620] | 1064SK fibroblast adhesion to Cyr61 (A620), antibody: anti-α1 + anti-α2 + anti-α3 (40 µg/ml each) [1] [A620] | 1064SK fibroblast adhesion to Cyr61 (A620), antibody: anti-α2 (40 µg/ml) [1] [A620] | 1064SK fibroblast adhesion to Cyr61 (A620), antibody: anti-α3 (40 µg/ml) [1] [A620] | 1064SK fibroblast adhesion to Cyr61 (A620), antibody: anti-α4 (40 µg/ml) [1] [A620] | inhibition of 1064SK fibroblast adhesion to Cyr61 by anti-α6 antibody [1] [%] | inhibition of 1064SK fibroblast adhesion to Cyr61 by anti-β1 antibody JB1A [1] [%] | inhibition of 1064SK fibroblast adhesion to wild-type Cyr61 by anti-α6 antibody (20 µg/ml) [1] [%] | HUVE cell adhesion to wild-type Cyr61 (5 µg/ml), relative binding capacity, pre-incubation: Anti-αvβ3 antibody (LM609, 40 µg/ml) [2] [%] | HUVE cell adhesion to wild-type Cyr61 (5 µg/ml), relative binding capacity, pre-incubation: EDTA (2.5 mM) [2] [%] | HUVE cell adhesion to wild-type Cyr61 (5 µg/ml), relative binding capacity, pre-incubation: None [2] [%] | HUVE cell adhesion to wild-type Cyr61 (5 µg/ml), relative binding capacity, pre-incubation: RGD peptide (1 mM) [2] [%] | Substance |
| --- | --- | --- | --- | --- | --- | --- | --- | --- | --- | --- | --- | --- | --- | --- | --- | --- | --- | --- | --- | --- |
| 0.48 | 0.62 | 22 |  |  |  |  |  |  |  |  |  |  |  |  |  |  |  |  |  | mouse laminin (ligand) |
|  |  |  | 0.08 | 0.14 | 0.53 | 0.53 | 0.58 | 0.54 | 0.56 | 0.6 | 0.55 | 0.56 | > 80 | 75 | 78 | 42 | 22 | 100 | 50 | human Cyr61 (from UniProt O00622 25-381) (ligand) |
